Reference: PMC7089075

Columns and labels:
[1] = biological target: N (two-hybrid positive control, pAS2 N and pGADT7 N); test: two-hybrid
[2] = biological target: Salmo salar Mov10 (SsMov10) (Salmo salar); test: two-hybrid

Substance	liquid beta gal assay value [1]	fold β-galactosidase activity against the controls [2]
N (two-hybrid positive control, pAS2 N and pGADT7 N) (natural protein)	1.28	–
infectious salmon anaemia virus (ISAV) segment 8 open reading frame 2 protein (s8ORF2) (natural protein)	–	5 fold
